In the experiment the target is GST-G1NC_(long) (GST-fused complete cytosolic domain of rat GIRK1, a.a. 1-84, 184-501) (rat) (UniProt P63251). Kind of experiment: pull-down.

Consider “Gβ1(I80N)γ2 (bovine Gβ1 I80N co-translated with bovine Gγ2) (from UniProt P62871 1-340; P63212 1-71) (complex)”, for which the binding as % of wt Gβγ stood at 89.6%.

The values above are taken from article PMC8426278.
